The values that follow are results of earlier work, collected in publication PMC5751705.

pKd: −log10 of the molar value.

The target in data set [1] is substance P (Homo sapiens) (UniProt P20366).
The next data set addresses YopB (Yersinia pestis) (UniProt Q06114).

NK1R, sequence (P25103 whole entry): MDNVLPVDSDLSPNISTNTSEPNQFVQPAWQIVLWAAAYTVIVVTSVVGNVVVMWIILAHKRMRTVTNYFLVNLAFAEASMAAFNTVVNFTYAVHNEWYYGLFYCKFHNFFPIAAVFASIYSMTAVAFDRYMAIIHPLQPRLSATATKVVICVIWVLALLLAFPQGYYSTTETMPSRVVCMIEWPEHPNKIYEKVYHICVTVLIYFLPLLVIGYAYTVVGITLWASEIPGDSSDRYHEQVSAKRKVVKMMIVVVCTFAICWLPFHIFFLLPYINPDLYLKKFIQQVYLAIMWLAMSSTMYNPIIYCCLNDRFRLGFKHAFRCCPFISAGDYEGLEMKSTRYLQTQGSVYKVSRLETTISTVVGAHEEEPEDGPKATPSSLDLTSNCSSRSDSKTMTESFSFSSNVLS
YopB (Yersinia pestis), sequence (Q06114 whole entry): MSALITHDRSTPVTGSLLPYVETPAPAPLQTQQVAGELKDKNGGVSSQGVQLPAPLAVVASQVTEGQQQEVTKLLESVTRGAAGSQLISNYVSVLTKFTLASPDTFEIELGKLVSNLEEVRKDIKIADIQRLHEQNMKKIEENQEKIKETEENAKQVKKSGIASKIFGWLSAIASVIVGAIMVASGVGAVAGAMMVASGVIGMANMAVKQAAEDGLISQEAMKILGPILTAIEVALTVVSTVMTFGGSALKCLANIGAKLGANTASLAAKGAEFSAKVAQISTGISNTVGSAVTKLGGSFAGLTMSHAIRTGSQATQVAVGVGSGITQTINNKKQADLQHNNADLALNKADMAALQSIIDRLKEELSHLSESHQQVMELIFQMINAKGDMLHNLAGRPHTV
substance P (Homo sapiens), sequence (P20366 whole entry, looked up): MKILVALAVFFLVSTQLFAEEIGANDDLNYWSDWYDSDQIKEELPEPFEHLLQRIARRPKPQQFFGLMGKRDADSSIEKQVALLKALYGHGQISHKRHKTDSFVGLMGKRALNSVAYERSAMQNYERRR
LcrV, sequence (P0C7U7 whole entry): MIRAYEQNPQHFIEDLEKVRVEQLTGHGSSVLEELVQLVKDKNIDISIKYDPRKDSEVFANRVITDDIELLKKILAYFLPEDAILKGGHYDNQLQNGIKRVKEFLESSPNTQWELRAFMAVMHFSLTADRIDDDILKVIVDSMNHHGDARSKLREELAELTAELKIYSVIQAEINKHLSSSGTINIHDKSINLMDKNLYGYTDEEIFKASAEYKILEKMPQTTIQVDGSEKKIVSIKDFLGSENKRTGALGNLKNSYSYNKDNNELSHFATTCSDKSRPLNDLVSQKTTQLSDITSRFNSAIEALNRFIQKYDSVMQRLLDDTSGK

As a reminder, the pKd is −log10 of the Kd, conventionally taken in molar units. Regarding NK1R (from UniProt P25103), the pKd in data set [1] was 7.08.
As to LcrV (from UniProt P0C7U7), the pKd with YopB (Yersinia pestis) is 7.69.
